Data from article PMC4620603.

Molecular target: pyrene-labeled tropomyosin from bovine cardiac tissue (bovine) (UniProt Q5KR49)
Test: other fluorescence titration; troponin complex binding to 100 nM pyrene-tropomyosin, 23 °C, 20 mM Hepes pH 7.5, 100 mM KCl, 2 mM MgCl2, 1 mM DTT

Substance: human adult cardiac troponin complex, wild type (troponin T, troponin I, troponin C) (from UniProt P45379-6 1-288; P19429 1-210; P02585 1-160)
- Kd: 68 nM

Substance: human adult cardiac troponin complex with R205Q troponin T (from UniProt P45379-6 1-288; P19429 1-210; P02585 1-160)
- Kd: 48 nM
